{
  "source": "paper PMC9468479",
  "molecular_target": "SARS-CoV-2 Omicron spike protein (SARS-CoV-2 B.1.1529 spike protein) (SARS-CoV-2 (Omicron)) (UniProt P0DTC2)",
  "experiment": "SPR",
  "note": "pKd: −log10 of the molar value.",
  "data": [
    {"substance": "Urtica dioica agglutinin (UDA) (natural protein)", "values": [
      {"measurement": "pKd", "result": 7.96}
    ]}
  ]
}
